Measured values as given in article PMC12656920.

Experiments:
PV-3C main protease [1] = molecular target: T1, PV-3C main protease (Poliovirus, UniProt P03300 1566-1748); test: NMR (SOFAST-HMQC peak loss); settings: protein: recombinant; tags: SUMO tag cleaved by ULP-1; 15N-labeled for NMR
PV-3C main protease [2] = molecular target: T1, PV-3C main protease; test: NMR (SOFAST-HMQC CSP); 3C:RNA 1:0.5; settings: protein: recombinant; tags: SUMO tag cleaved by ULP-1; 15N-labeled for NMR

T1 sequence (P03300 1566-1748): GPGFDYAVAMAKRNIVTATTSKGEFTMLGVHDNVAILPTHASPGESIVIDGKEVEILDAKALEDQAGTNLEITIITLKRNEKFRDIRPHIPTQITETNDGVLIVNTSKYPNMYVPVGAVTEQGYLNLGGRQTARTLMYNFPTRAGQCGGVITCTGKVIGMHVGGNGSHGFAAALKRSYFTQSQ

Binder | binding result (PV-3C main protease [1]) | binding result (PV-3C main protease [2])
CAUACUGUUGUAGGGGAA (ssRNA) [RNA-2] | binds | –
GGCGGCGUACUCCGG (ssRNA) [RNA-1] | – | binds
